In general, Kd refers to the constant that tells how readily two partners part at equilibrium.

The results in this text go back to US20240352084A1.

What all share (settings): ligand
The target of assay [1] is human IL-2Rα ectodomain (residues 1-217) with C-terminal biotin acceptor peptide and histidine tag, biotinylated (human) (UniProt P01589). The assay can be described thus: MST; pH 5.
Assay [2] has the same target. The assay is described as follows: MST; pH 6.
For assay [3] the target is unchanged. The assay is described as follows: MST; pH 7.

Sequence of UniProt P01589 (P01589 other isoform, or with tags, fused parts or gaps): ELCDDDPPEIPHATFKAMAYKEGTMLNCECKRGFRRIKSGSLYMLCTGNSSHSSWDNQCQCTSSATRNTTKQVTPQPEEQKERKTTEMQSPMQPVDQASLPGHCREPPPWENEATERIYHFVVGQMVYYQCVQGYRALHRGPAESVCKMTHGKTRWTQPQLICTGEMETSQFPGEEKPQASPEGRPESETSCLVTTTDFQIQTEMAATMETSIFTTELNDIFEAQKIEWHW

As to “Human IL-2 wild-type (WT; residues 1-133), recombinant, C-terminal histidine tag (from UniProt P60568 21-150)”, the Kd is 184 nM in assay [1], 90 nM in assay [2] and 7 nM in assay [3].
